Reference: the supplement of paper PMC10057847, “Precision engineering of biological function with large-scale measurements and machine learning” (PLOS ONE, 2023)
“And” between values parts separate entries of the source, which are not always exact repeats. Equal entries are not always repeated. ± gives the uncertainty stated by the source.

B1: library; the commonest letter at each place (parent)
chain: MKPVTLYDVAEYAGVSYQTVSRVVNQASHVSAKTREKVEAAMAELNYIPNRVAQQLAGKQSLLIGVATSSLALHAPSQIVAAIKSRADQLGASVVVSMVERSGVEACKAAVHNLLAQRVSGLIINYPLDDQDAIAVEAACTNVPALFLDVSDQTPINSIIFSHEDGTRLGVEHLVALGHQQIALLAGPLSSVSARLRLAGWHKYLTRNQIQPIAEREGDWSAMSGFQQTMQMLNEGIVPTAMLVANDQMALGAMRAITESGLRVGADISVVGYDDTEDSSCYIPPLTTIKQDFRLLGQTSVDRLLQLSQGQAVKGNQLLPVSLVKRKTTLAPNTQTASPRALADSLMQLARQVSRLESGQ

Assays:
Settings in all cases: with IPTG
IPTG [1] = variants of: B1
Procedure: (§1)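 LacI variants on the pVER plasmid regulate eYFP behind lacO in E. coli MG1655Δlac, grown in rich M9 at 37 °C with a 2-fold IPTG dilution series. After two 160-min growth steps, YFP is read by flow cytometry and calibrated to MEF. Bayesian MCMC fits of the Hill equation give G0, G∞, EC50 and n (posterior mean ± SD).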

IPTG [2] = variants of: B1; experiment: Hill coefficient n (dimensionless); higher = steeper dose response
Procedure: as §1

IPTG [3] = variants of: B1; experiment: basal output G0 (YFP, no IPTG) (log10 MEF); higher = higher reporter expression without inducer
Procedure: as §1

IPTG [4] = variants of: B1; experiment: saturating output G-infinity (YFP) (log10 MEF); higher = higher reporter expression at saturating IPTG
Procedure: as §1

Row | Variant | EC50 for IPTG (log10 µmol/L) (IPTG [1]) | Hill coefficient n (IPTG [2]) | basal output G0 (log10) (IPTG [3]) | saturating output G-infinity (log10) (IPTG [4])
1 | A72V A110V N142D S322L | 0.557 ± 0.022 | 1.42 ± 0.1 | 3.778 ± 0.015 | 4.443 ± 0.0049
2 | S70R F161V | 2.02 ± 0.013 | 1.29 ± 0.039 | 3.01 ± 0.037 | 4.3852 ± 0.0042
3 | I83F | 1.29 ± 0.02 | 1.43 ± 0.06 | 2.91 ± 0.064 | 4.434 ± 0.0071
4 | I83M | 2.555 ± 0.019 | 1.48 ± 0.049 | 1.45 ± 0.61 | 4.268 ± 0.0077
5 | A82G | 2.576 ± 0.011 | 1.3 ± 0.021 | 2.51 ± 0.036 | 4.414 ± 0.0045
6 | A82V | 1.93 ± 0.025 | 1.51 ± 0.075 | 1.71 ± 0.7 | 4.252 ± 0.01
7 | S97T G200C | 2.162 ± 0.012 | 1.65 ± 0.041 | 2.68 ± 0.043 | 4.442 ± 0.0057
8 | S69T I83M | 2.293 ± 0.009 | 1.48 ± 0.033 | 1.02 ± 0.61 | 4.2699 ± 0.0031
9 | A138T A214V V244L | 1.808 ± 0.0078 | 1.61 ± 0.025 | 2.43 ± 0.047 | 4.4294 ± 0.0033
10 | S69T V80L | 1.75 ± 0.025 | 1.38 ± 0.066 | 1.09 ± 0.68 | 4.182 ± 0.0044
11 | Q89L S158C E172K Q291H | 2.457 ± 0.021 | 1.33 ± 0.04 | 3.336 ± 0.007 | 4.341 ± 0.0086
12 | Q55H D130E V192A T258I D267N Y273H N333I | 2.889 ± 0.028 | 1.39 ± 0.097 | 4.402 ± 0.0063 | 3.681 ± 0.016
13 | V96E T154I S158R V238D M254I V264I | 2.37 ± 0.029 | 1.37 ± 0.067 | 4.479 ± 0.01 | 3.19 ± 0.03
14 | S70R Q231R | 1.509 ± 0.0064 | 1.47 ± 0.025 | 2.67 ± 0.037 | 4.251 ± 0.0022
15 | S97T | 1.59 ± 0.023 | 1.58 ± 0.067 | 2.61 ± 0.16 | 4.572 ± 0.01
16 | S70R S97T | 1.16 ± 0.037 | 1.37 ± 0.1 | 3.15 ± 0.062 | 4.362 ± 0.012
17 | V80L | 2.098 ± 0.0098 | 1.52 ± 0.036 | 1.75 ± 0.28 | 3.914 ± 0.0043
18 | D88Y A241V N246S L305M L319F P339T A341T L346S | 2.73 ± 0.1 | 0.483 ± 0.058 | 4.455 ± 0.018 | 2.91 ± 1.1
19 | S70R A87P V301M E357G | 3.59 ± 0.015 | 1.66 ± 0.081 | 4.5727 ± 0.004 | 3.672 ± 0.019
20 | D130E | 1.902 ± 0.012 | 1.76 ± 0.057 | 2.29 ± 0.45 | 4.467 ± 0.0052

Row | Variant | EC50 for IPTG (log10 µmol/L) (IPTG [1]) | Hill coefficient n (IPTG [2]) | basal output G0 (log10) (IPTG [3]) | saturating output G-infinity (log10) (IPTG [4])
21 | E11K A27G K37N H112L A139V S191P | 2.26 ± 0.028 | 1.4 ± 0.06 | 3.373 ± 0.0099 | 4.426 ± 0.012
22 | Q60R N113S R207G R216G V271M L307I A350T | 2.236 ± 0.011 | 1.62 ± 0.029 | 2.28 ± 0.058 | 4.401 ± 0.0051
23 | L296R | 4.37 ± 0.045 | 1.33 ± 0.051 | 2.995 ± 0.0098 | 4.383 ± 0.025
24 | S279T | 1.481 ± 0.012 | 1.48 ± 0.03 | 2.68 ± 0.034 | 4.458 ± 0.0048
25 | Q55K G121V N333I | 1.78 ± 0.031 | 1.58 ± 0.092 | 2.37 ± 0.36 | 4.393 ± 0.012
26 | V94L V99I V104I L307F | 1.47 ± 0.02 | 1.56 ± 0.1 | 2.75 ± 0.26 | 4.204 ± 0.0067
27 | P285S V301M S308P M347V | 0.927 ± 0.019 | 1.33 ± 0.057 | 3.595 ± 0.017 | 4.489 ± 0.0054
28 | M42I | 2.437 ± 0.015 | 1.43 ± 0.046 | 0.821 ± 0.6 | 4.148 ± 0.0056
29 | S70R V136E | 1.841 ± 0.017 | 1.69 ± 0.085 | 4.55 ± 0.0061 | 3.806 ± 0.01
30 | E39D N208D A222V | 1.37 ± 0.022 | 1.55 ± 0.079 | 3.1 ± 0.043 | 4.484 ± 0.0081
31 | V95M A337T | 2.109 ± 0.018 | 1.59 ± 0.082 | 2.13 ± 0.64 | 4.23 ± 0.0081
32 | I160N R263S L305Q | 2.561 ± 0.022 | 1.61 ± 0.054 | 1.14 ± 0.59 | 4.285 ± 0.012
33 | L62M A109V D149E M242V P285S Q317R | 2.91 ± 0.051 | 1.37 ± 0.066 | 2.56 ± 0.042 | 4.412 ± 0.028
34 | T68I | 1.41 ± 0.045 | 1.28 ± 0.1 | 3.24 ± 0.054 | 4.419 ± 0.015
35 | R51C | 0.988 ± 0.036 | 1.44 ± 0.14 | 3.91 ± 0.021 | 4.49 ± 0.0086
36 | R51H | 1.19 ± 0.02 | 1.46 ± 0.061 | 3.701 ± 0.013 | 4.63 ± 0.0066
37 | S69T | 1.7 ± 0.018 | 1.64 ± 0.06 | 2.07 ± 0.53 | 4.406 ± 0.0077
38 | S69F | 1.05 ± 0.042 | 1.51 ± 0.14 | 2.66 ± 0.67 | 4.379 ± 0.015
39 | I83F G200C | 1.913 ± 0.0091 | 1.48 ± 0.032 | 3.03 ± 0.023 | 4.4658 ± 0.0031
40 | K84E D88Y L90P Q153L A199V L342M R351P S358R | 1.47 ± 0.046 | 0.795 ± 0.045 | 4.34 ± 0.01 | 3.722 ± 0.01

Row | Variant | EC50 for IPTG (log10 µmol/L) (IPTG [1]) | Hill coefficient n (IPTG [2]) | basal output G0 (log10) (IPTG [3]) | saturating output G-infinity (log10) (IPTG [4])
41 | N125D | 2.739 ± 0.019 | 1.27 ± 0.038 | 2.73 ± 0.035 | 4.445 ± 0.0072
42 | I83M V136E | 1.48 ± 0.029 | 1.21 ± 0.075 | 4.519 ± 0.0083 | 3.789 ± 0.011
43 | S28G T34M Q60R A81S E100K L148V S221N V271L | 0.477 and 0.475 | 1.41 and 2.02 | 3.92 | 4.46 and 4.41
44 | S70R V150A S190T F226L | 0.971 ± 0.021 | 1.48 ± 0.089 | 3.37 ± 0.035 | 4.221 ± 0.0049
45 | K2R A92V R195P D278G | 2.91 ± 0.042 | 2.03 ± 0.12 | 3.086 ± 0.01 | 4.436 ± 0.04
46 | G121V G261V | 1.847 ± 0.017 | 1.58 ± 0.052 | 2.58 ± 0.083 | 4.418 ± 0.0075
47 | S70R Q181H | 1.49 ± 0.03 | 1.46 ± 0.12 | 2.55 ± 0.62 | 4.269 ± 0.011
48 | V15I F161I A266T K290R M347I | 2.85 ± 0.076 | 1.46 ± 0.13 | 3.111 ± 0.019 | 4.369 ± 0.043
49 | F161S | 1.12 ± 0.017 | 1.43 ± 0.047 | 3.04 ± 0.036 | 4.464 ± 0.0055
50 | F161V | 2.58 ± 0.015 | 1.59 ± 0.044 | 1.98 ± 0.34 | 4.455 ± 0.0069
51 | F161L | 3.161 ± 0.0097 | 1.32 ± 0.022 | 1.83 ± 0.42 | 4.38 ± 0.0037
52 | I64V V95M Q131R T141A D152E N208I A222T L295M K327N | 0.469 ± 0.011 | 1.55 ± 0.075 | 3.589 ± 0.011 | 4.4894 ± 0.0031
53 | S69T S97T | 1.37 ± 0.019 | 1.55 ± 0.059 | 2.65 ± 0.11 | 4.496 ± 0.0072
54 | V9I R255C E259D T336I R355Q | 1.05 ± 0.014 | 1.38 ± 0.044 | 3.374 ± 0.028 | 4.5116 ± 0.0042
55 | V80L V96E T154I S158R V238D M254I V264I | 1.68 ± 0.055 | 1.16 ± 0.085 | 4.207 ± 0.016 | 3.07 ± 0.031
56 | N208Y | 2.01 ± 0.0066 | 1.64 ± 0.026 | 2.24 ± 0.14 | 4.4021 ± 0.003
57 | Q231R | 2.063 ± 0.0082 | 1.67 ± 0.03 | 2.29 ± 0.081 | 4.3759 ± 0.0039
58 | V136E S279T | 0.991 ± 0.11 | 2.42 ± 0.69 | 3.916 ± 0.02 | 4.035 ± 0.0064
59 | V136E L169P | 4.914 ± 0.028 | 2.33 ± 0.32 | 4.5429 ± 0.0026 | 1.85 ± 1.1
60 | S69F V95A A110E I159S | 1.109 ± 0.01 | 1.64 ± 0.055 | 2.8 ± 0.081 | 4.2252 ± 0.003
